Experiment [1] has as its target T1, Human IL-2 (Humanzyme, HumanKine IL-2) (human, UniProt P60568 21-153).
T1 construct: Bought; also called hIL-2
Nature of the experiment: SPR (Biacore T200), antibody captured, human IL-2 injected.

The target in experiment [2] is T2, mouse IL-2 (Peprotech #212-12) (mouse, UniProt P04351 21-169).
T2 construct: Bought
T2 sequence (looked up): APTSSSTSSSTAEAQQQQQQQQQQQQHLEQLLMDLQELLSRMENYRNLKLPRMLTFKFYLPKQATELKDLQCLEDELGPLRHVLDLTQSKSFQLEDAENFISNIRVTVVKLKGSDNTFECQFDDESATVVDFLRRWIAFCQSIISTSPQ
Nature of the experiment: told in Example 10; method not named there (SPR in Example 4).

From patent publication WO2015109212A1 (dated 2015) come the findings set out here.

T1 sequence (P60568 21-153 limits assumed): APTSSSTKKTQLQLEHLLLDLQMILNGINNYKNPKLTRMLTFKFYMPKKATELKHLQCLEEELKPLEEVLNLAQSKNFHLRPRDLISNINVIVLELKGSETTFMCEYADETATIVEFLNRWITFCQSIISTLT

B1: 24E7 (antibody, IgG1, V domains shown)
VH: QVQLVQSGAEVKKPGESLKISCKGSGYSFTSYWIGWVRQMPGKGLEWMGIIYPGDSDTRYSPSFQGQVTISADKSISTAYLQWSSLKASDTAMYYCARETLAAVGSNYYYYGMDVWGQGTTVTVSS
VL: SYELTQPPSVSVSPGQTARITCSGDALPRKYAYWYQQKSGQAPVLVIYEDSKRPSGIPERFSGSSSGTMATLTISGAQVEDEADYYCYSTDRSGNFWVFGGGTKVTVL
notes: also called mAb 24E7
On to B1, for which the binding result in experiment [1] and in experiment [2] was “binds” in each case.

B2: 16B2 (antibody, IgG1, V domains shown)
VH: QVQLVQSGAEVKKPGASVKVSCKASGYTFTSYGISWVRQAPGQGLEWMGWISAYNGNTNYAQKLQGRVTMTTDTSTSTAYMELRSLRSDDTAVYYCAREGAIYYDSSGYYFPFDYWGQGTLVTVSS
VL: SYELTQPPSVSVSPGQTARITCSGDALPRKFAYWYQQKSGQAPVMVIYGDSKRPPGIPERFSGSSSGTMATLTITGAQVEDEADYYCYSTDSGGDVSVFGGGTKLTVL
notes: also called mAb 16B2
For the molecule B2, the binding result in experiment [1] and in experiment [2] was “binds” each time.
